B1: Tumor necrosis factor alpha-induced protein 8-like protein 2 (Homo sapiens), Q6P589 (parent)
chain: MESFSSKSLALQAEKKLLSKMAGRSVAHLFIDETSSEVLDELYRVSKEYTHSRPQAQRVIKDLIKVAIKVAVLHRNGSFGPSELALATRFRQKLRQGAMTALSFGEVDFTFEAAVLAGLLTECRDVLLELVEHHLTPKSHGRIRHVFDHFSDPGLLTALYGPDFTQHLGKICDGLRKLLDEGKL

Variants of: B1
Settings: with RAC1, P63000-1

| Variant | effect of a mutation on the interaction |
| --- | --- |
| MESFSSKSLALQAEQQLLSKMAGRSVAHLFIDETSSEVLDELYRVSKEYTHSRPQAQRVIKDLIKVAIKVAVLHRNGSFGPSELALATRFRQKLRQGAMTALSFGEVDFTFEAAVLAGLLTECRDVLLELVEHHLTPKSHGRIRHVFDHFSDPGLLTALYGPDFTQHLGKICDGLRKLLDEGKL [K15Q;K16Q] | decreasing interaction strength |
| MESFSSKSLALQAEKKLLSKMAGASVAHLFIDETSSEVLDELYRVSKEYTHSRPQAQRVIKDLIKVAIKVAVLHRNGSFGPSELALATRFRQKLRQGAMTALSFGEVDFTFEAAVLAGLLTECRDVLLELVEHHLTPKSHGRIRHVFDHFSDPGLLTALYGPDFTQHLGKICDGLRKLLDEGKL [R24A] | disrupting interaction strength |

Source: IntAct's records for PubMed 22949657
